Assay results: article PMC3544974 (Structure (London, England : 1993), 2012)

B1: HBeAg construct Cp(-10)149, C48A, C107A (natural protein)
chain: SKLCLGWLWGMDIDPYKEFGATVELLSFLPSDFFPSVRDLLDTAAALYRDALESPEHASPHHTALRQAILCWGDLMTLATWVGTNLEDPASRDLVVSYVNTNVGLKFRQLLWFHISALTFGRETVLEYLVSFGVWIRTPPAYRPPNAPILSTLPETTVV

How the values were obtained:
[1] = target: HBeAg used for crystallization: Cp(-10)149, C48A, C107A, G123A (Hepatitis B virus) (UniProt P03147); test: crystal structure
[2] = target: the molecule itself; test: AUC

Molecule | stoichiometry N [1] | stoichiometry N [2]
HBeAg used for crystallization: Cp(-10)149, C48A, C107A, G123A (from UniProt P03147 1-149) (natural protein) | 2 | –
B1 | – | 2
